# Measured values taken from article PMC6008586, “Analysis of transition state mimicry by tight binding aminothiazoline inhibitors provides insight into catalysis by human O-GlcNAcase” (Chemical Science, 2016).
# How the values were obtained:
# Test in all cases: Kinetic analysis of hOGA-catalysed hydrolysis of fluorogenic substrates
# Format in all cases: biochemical, human
# [1] = substrate: CCCCNC(=O)N[C@H]1[C@H](Oc2ccc3c(C)cc(=O)oc3c2)O[C@H](CO)[C@@H](O)[C@@H]1O; settings: other: substrate of hOGA, pH 7.4 PBS, 2.5% DMF, 37.0 °C
# Source text: (§1) Given the greater than 100-fold increase in potency we observe for the 2′-aminothiazoline inhibitors over their thiazoline counterparts and their structural resemblance to the oxazoline intermediate found along the reaction coordinate of hOGA, we wanted to assess whether incorporation of the 2′-amino group benefitted binding through serendipitous interactions, or whether the presence of the charge included in this class of inhibitors also made them TS analogues. We therefore turned to using the Bartlett LFER approach. […] We started from 4-methylumbelliferyl 2-amino-2-deoxy-β-D-glucopyranoside hydrochloride (16) as a common intermediate.[54] Per-O-acetylated urea substrates 17a–e were prepared by reacting 16 with the appropriate alkylisocyanate in the presence of triethylamine, followed by Zemplen de-O-acetylation. With this series of substrates (18a–e) in hand we determined the kcat/Km values governing their hOGA catalyzed hydrolysis (ESI Table S1 ^†). […] In contrast, we find no correlation between log Ki values for the inhibitors and log Km values for the series of substrates (Fig. 6B). […]
# (§2) Biological evaluation: Gene expression and protein purification. hOGA was expressed and purified according to the previously described procedure by Macauley et al.[5] hOGA was dialyzed twice against PBS buffer after purification and its concentration determined using the Nanodrop2000. Human β-hexosaminidase was obtained from Micheal Tropak at the Hospital for Sick Children in Toronto, without further purification.
# (§3) Kinetic analysis of hOGA. All assays were carried out in 96 well plates (Thermoscientific, FloroNunc, lot # 139825) in PBS pH 7.4 buffer (0.03% BSA) in triplicate at 37°C for 20 minutes. A continuous assay procedure was performed in which the reactions were initiated by the addition of 4-MUGlcNAc substrate (50 µL or 100 µL via a multi-channel […]
# (§4) The excitation and emission were 350 and 445 nm, respectively. The amount of fluorogenic substrate liberated was quantitatively assessed by using a standard curve for 4-methylumbelliferone under identical buffer conditions. A total of 6-8 inhibitor concentrations were tested, […]
# (§5) The hOGA concentrations in the assays ranged from 0.8 nM to 20 nM, depending on whether the Ki being determined was through classic Michaelis-Menten methods or the Morrison Ki fit. For full Ki […]
# (§6) For the Morrison Ki analyses, only one substrate concentration was used (at the Km) since the method of inhibition was already known from analysis using the Line-weaver Burke plots. The representative hOGA Ki plots are summarized in Supplemental Figures S1, S2 and S3. Kinetic analysis of substrates 18a-e were performed in triplicate using pH 7.4 PBS buffer (0.03% BSA) containing 2.5% DMF, with varying enzyme concentrations. The Michaelis-Menten curves for substrates 18a-e with hOGA are summarized in Supplemental Figure S6 and the kinetic parameters are described in Supplemental Table S1. […]
# (§7) # 139825) at pH 4.25 (50 mM citrate, 100 mM NaCl, 0.03% BSA) at 37°C in triplicate for 20 minutes. Enzymatic reactions were triggered by addition of substrate (20 µL or 15 µL) in a total volume of 45 or 40 µL. Reactions were quenched by the addition of a 4-fold excess (160 or 180 µL) of quenching buffer (200 mM glycine, pH 10.75) in order to […]
# [2] = substrate: Cc1cc(=O)oc2cc(O[C@@H]3O[C@H](CO)[C@@H](O)[C@H](O)[C@H]3NC(N)=O)ccc12; settings: other: estimated by non-linear regression, saturation of hOGA not observed, pH 7.4 PBS, 2.5% DMF, 37.0 °C
# Source text: as §1, §2, §3, §4, §5, §6, §7
# [3] = substrate: CNC(=O)N[C@H]1[C@H](Oc2ccc3c(C)cc(=O)oc3c2)O[C@H](CO)[C@@H](O)[C@@H]1O; settings: other: estimated by non-linear regression, saturation of hOGA not observed, pH 7.4 PBS, 2.5% DMF, 37.0 °C
# Source text: as §1, §2, §3, §4, §5, §6, §7
# [4] = substrate: CCNC(=O)N[C@H]1[C@H](Oc2ccc3c(C)cc(=O)oc3c2)O[C@H](CO)[C@@H](O)[C@@H]1O; settings: other: substrate of hOGA, pH 7.4 PBS, 2.5% DMF, 37.0 °C
# Source text: as §1, §2, §3, §4, §5, §6, §7
# [5] = substrate: CCCNC(=O)N[C@H]1[C@H](Oc2ccc3c(C)cc(=O)oc3c2)O[C@H](CO)[C@@H](O)[C@@H]1O; settings: other: substrate of hOGA, pH 7.4 PBS, 2.5% DMF, 37.0 °C
# Source text: as §1, §2, §3, §4, §5, §6, §7
protein,measurement,setting,value
"hOGA (Homo sapiens) (protein, made in house) MVQKESQATLEERESELSSNPAASAGASLEPPAAPAPGEDNPAGAGGAAVAGAAGGARRFLCGVVEGFYGRPWVMEQRKELFRRLQKWELNTYLYAPKDDYKHRMFWREMYSVEEAEQLMTLISAAREYEIEFIYAISPGLDITFSNPKEVSTLKRKLDQVSQFGCRSFALLFDDIDHNMCAADKEVFSSFAHAQVSITNEIYQYLGEPETFLFCPTEYCGTFCYPNVSQSPYLRTVGEKLLPGIEVLWTGPKVVSKEIPVESIEEVSKIIKRAPVIWDNIHANDYDQKRLFLGPYKGRSTELIPRLKGVLTNPNCEFEANYVAIHTLATWYKSNMNGVRKDVVMTDSEDSTVSIQIKLENEGSDEDIETDVLYSPQMALKLALTEWLQEFGVPHQYSSRQVAHSGAKASVVDGTPLVAAPSLNATTVVTTVYQEPIMSQGAALSGEPTTLTKEEEKKQPDEEPMDMVVEKQEETDHKNDNQILSEIVEAKMAEELKPMDTDKESIAESKSPEMSMQEDCISDIAPMQTDEQTNKEQFVPGPNEKPLYTAEPVTLEDLQLLADLFYLPYEHGPKGAQMLREFQWLRANSSVVSVNCKGKDSEKIEEWRSRAAKFEEMCGLVMGMFTRLSNCANRTILYDMYSYVWDIKSIMSMVKSFVQWLGCRSHSSAQFLIGDQEPWAFRGGLAGEFQRLLPIDGANDLFFQPPPLTPTSKVYTIRPYFPKDEASVYKICREMYDDGVGLPFQSQPDLIGDKLVGGLLSLSLDYCFVLEDEDGICGYALGTVDVTPFIKKCKISWIPFMQEKYTKPNGDKELSEAEKIMLSFHEEQEVLPETFLANFPSLIKMDIHKKVTDPSVAKSMMACLLSSLKANGSRGAFCEVRPDDKRILEFYSKLGCFEIAKMEGFPKDVVILGRSL",Km,[1],30 ± 3 µM
same,Km,[2],1265 ± 259 µM
same,Km,[3],1825 ± 542 µM
same,Km,[4],85 ± 20 µM
same,Km,[5],120 ± 11 µM
